The experiment addresses LILRB1 expressed on the surface of human natural killer cell KHYG-1 (human) (UniProt Q8NHL6). The experiment in a line: flow cytometry (iQue) on KHYG-1 NK cells, antibody 50 ug/mL. (In general: A flow cytometer gives signals particle by particle.)

Our source for the % of population 2 and Mean Fluorescence Intensity values is patent publication US20240270841A1.

LILRB1 expressed on the surface of human natural killer cell KHYG-1 (human), sequence (Q8NHL6 24-650): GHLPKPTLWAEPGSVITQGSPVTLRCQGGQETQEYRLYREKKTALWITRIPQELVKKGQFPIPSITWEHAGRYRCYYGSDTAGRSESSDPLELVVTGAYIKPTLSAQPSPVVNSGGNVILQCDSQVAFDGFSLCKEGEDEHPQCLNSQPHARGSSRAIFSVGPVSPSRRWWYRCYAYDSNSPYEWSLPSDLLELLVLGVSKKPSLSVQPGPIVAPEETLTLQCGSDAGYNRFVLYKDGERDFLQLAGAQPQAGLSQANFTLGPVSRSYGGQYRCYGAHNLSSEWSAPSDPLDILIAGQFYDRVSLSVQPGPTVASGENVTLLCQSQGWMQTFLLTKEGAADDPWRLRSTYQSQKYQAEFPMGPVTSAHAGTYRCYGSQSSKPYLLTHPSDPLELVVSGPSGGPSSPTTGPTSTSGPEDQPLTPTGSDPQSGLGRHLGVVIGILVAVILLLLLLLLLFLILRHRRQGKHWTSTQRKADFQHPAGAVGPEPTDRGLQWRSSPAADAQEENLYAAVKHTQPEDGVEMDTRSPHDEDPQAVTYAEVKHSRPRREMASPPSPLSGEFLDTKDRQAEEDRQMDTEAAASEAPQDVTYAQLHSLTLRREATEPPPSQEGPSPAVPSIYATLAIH

As for “human IgG4 isotype control antibody (Biolegend)”, the % of population 2 stood at 2.95% and the Mean Fluorescence Intensity stood at 143000.
